Data: US20120201826A1

Molecular target: recombinant human RANTES (huRANTES, Peprotech) (human) (UniProt P13501)
Assay: cell-based or functional assay

Chain of recombinant human RANTES (huRANTES, Peprotech) (human) (P13501 24-91): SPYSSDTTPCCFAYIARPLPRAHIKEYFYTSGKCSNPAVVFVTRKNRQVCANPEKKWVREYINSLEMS

Chemotaxis IC50 (nM); L1.2 cells expressing hCCR5, 1 nM huRANTES; scFv format: 21 nM
B1: A5 scFv (scFv, part only; not given: linker and tags, part only)
scFv, part: QVQLVQSGAEVKKPGASVKVSCKVSGYALSELSIHWVRQAPGKGLEWMSYIDPEDGEPIYAQKFQGRATMTEDSSTDTAYMEMGSLTSDDTAVYYCAGVTGSTSDAFDLWGRGTLVTVSSSYVLTQDPSVSVAPGQTARITCGGANLWGLGVHWYQQKSGQAPVLVVSDNSDRASGIPERFSGSNSGTTATLTLSRVEVGDEADYYCQVWDSSSDHWVFGGRTKLTVL
